The results in this text go back to article PMC10127515, “Biocatalytic Synthesis of Homochiral 2-Hydroxy-4-butyrolactone Derivatives by Tandem Aldol Addition and Carbonyl Reduction” (ACS Catalysis, 2023).

The target in series [1] is T1, KPREcoli (ketopantoate reductase from E. coli) (Escherichia coli, UniProt P0A9J4).
T1 construct: gene panE; recombinant wild type; tags and purification only in the supplement
T1 sequence (P0A9J4 1-303): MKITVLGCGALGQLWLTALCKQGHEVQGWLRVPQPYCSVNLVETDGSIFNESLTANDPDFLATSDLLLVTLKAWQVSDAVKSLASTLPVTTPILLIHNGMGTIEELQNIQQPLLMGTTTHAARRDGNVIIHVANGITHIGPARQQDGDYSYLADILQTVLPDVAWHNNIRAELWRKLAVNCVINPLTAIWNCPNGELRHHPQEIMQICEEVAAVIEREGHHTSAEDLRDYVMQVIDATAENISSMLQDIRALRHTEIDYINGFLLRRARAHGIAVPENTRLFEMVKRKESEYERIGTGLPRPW
Nature of the series: NADPH oxidation at […] nm, continuous. Type of series: biochemical. The settings on record: NADPH 0.16 mM; 50 mM Tris-HCl pH 8.0; 30 °C; substrate inhibition.

Substrate in series [2]: CC[C@@H](CO)C(=O)C(=O)O
Nature of the series: purified protein. Type of series: biochemical, Pseudomonas syringae group genomosp. 3. The settings on record: NADPH 0.16 mM, 50 mM Tris-HCl pH 8.0, 30 °C.

Substrate in series [3]: C[C@@H](CO)C(=O)C(=O)O
As to the kind of experiment: purified protein. The format is biochemical, Pseudomonas syringae group genomosp. 3. As to conditions: NADPH 0.16 mM, 50 mM Tris-HCl pH 8.0, 30 °C.

Substrate in series [4]: C[C@H](CO)C(=O)C(=O)O
Nature of the series: purified protein. Type of series: biochemical, Pseudomonas syringae group genomosp. 3. The settings on record: NADPH 0.16 mM, 50 mM Tris-HCl pH 8.0, 30 °C.

Substrate in series [5]: O=C(O)C(=O)CCO
As to the kind of experiment: purified protein. Type of series: biochemical, Pseudomonas syringae group genomosp. 3. As to conditions: NADPH 0.16 mM, 50 mM Tris-HCl pH 8.0, 30 °C.

Substrate in series [6]: O=C(O)C(=O)C[C@@H](O)CO
Nature of the series: purified protein. Type of series: biochemical, Pseudomonas syringae group genomosp. 3. As to conditions: NADPH 0.16 mM, 50 mM Tris-HCl pH 8.0, 30 °C.

Substrate in series [7]: C=CC[C@@H](CO)C(=O)C(=O)O
Nature of the series: purified protein. Type of series: biochemical, Escherichia coli. The settings on record: NADPH 0.16 mM, 50 mM Tris-HCl pH 8.0, 30 °C.

Substrate in series [8]: C=CC[C@H](CO)C(=O)C(=O)O
Nature of the series: purified protein. The format is biochemical, Escherichia coli. The settings on record: NADPH 0.16 mM, 50 mM Tris-HCl pH 8.0, 30 °C.

Substrate in series [9]: CC(C)(CO)C(=O)C(=O)O
Nature of the series: purified protein. The format is biochemical, Escherichia coli. The settings on record: NADPH 0.16 mM, 50 mM Tris-HCl pH 8.0, 30 °C.

Substrate in series [10]: CC(C)[C@@H](CO)C(=O)C(=O)O
As to the kind of experiment: purified protein. Type of series: biochemical, Escherichia coli. As to conditions: NADPH 0.16 mM, 50 mM Tris-HCl pH 8.0, 30 °C.

Substrate in series [11]: CC[C@@H](CO)C(=O)C(=O)O
As to the kind of experiment: purified protein. Type of series: biochemical, Escherichia coli. As to conditions: NADPH 0.16 mM, 50 mM Tris-HCl pH 8.0, 30 °C.

Substrate in series [12]: CC[C@H](CO)C(=O)C(=O)O
As to the kind of experiment: purified protein. Type of series: biochemical, Escherichia coli. As to conditions: NADPH 0.16 mM, 50 mM Tris-HCl pH 8.0, 30 °C.

Substrate in series [13]: COCC[C@H](CO)C(=O)C(=O)O
Nature of the series: purified protein. Type of series: biochemical, Escherichia coli. The settings on record: NADPH 0.16 mM, 50 mM Tris-HCl pH 8.0, 30 °C.

Substrate in series [14]: C[C@@H](CO)C(=O)C(=O)O
As to the kind of experiment: purified protein. The format is biochemical, Escherichia coli. As to conditions: NADPH 0.16 mM, 50 mM Tris-HCl pH 8.0, 30 °C.

Substrate in series [15]: C[C@H](CO)C(=O)C(=O)O
As to the kind of experiment: purified protein. Type of series: biochemical, Escherichia coli. The settings on record: NADPH 0.16 mM, 50 mM Tris-HCl pH 8.0, 30 °C.

Substrate in series [16]: O=C(O)C(=O)C1(CO)CCC1
Nature of the series: purified protein. The settings on record: NADPH 0.16 mM, 50 mM Tris-HCl pH 8.0, 30 °C. Type of series: biochemical, Escherichia coli.

Substrate in series [17]: O=C(O)C(=O)C1(CO)CCCC1
As to the kind of experiment: purified protein. Type of series: biochemical, Escherichia coli. The settings on record: NADPH 0.16 mM, 50 mM Tris-HCl pH 8.0, 30 °C.

Substrate in series [18]: O=C(O)C(=O)CCO
Nature of the series: purified protein. The format is biochemical, Escherichia coli. The settings on record: NADPH 0.16 mM, 50 mM Tris-HCl pH 8.0, 30 °C.

In the case of `O=C(O)C(=O)C1(CO)CCCC1` [3l], in [1], the “KPREcoli ^b / ksi^app” value came out at 28 ± 4 mM.
With `CC(C)(CO)C(=O)C(=O)O` [3j, ketopantoate], the “KPREcoli ^b / ksi^app” value in series [1] was determined as 3.9 ± 1.3 mM.
On the same count and under the same terms, the result for `O=C(O)C(=O)C1(CO)CCC1` [3k] reads 6.6 ± 1.5 mM.

B1: DpkAPsyrin (Δ1-piperidine-2-carboxylate/Δ1-pyrroline-2-carboxylate reductase) (Pseudomonas syringae pv. tomato) (protein)
chain: MSASHADQPTQTVSYPQLIDLLRRIFVVHGTSPEVADVLAENCASAQRDGSHSHGIFRIPGYLSSLASGWVDGKAVPVVEDVGAAFVRVDACNGFAQPALAAARSLLIDKARSAGVAILAIRGSHHFAALWPDVEPFAEQGLVALSMVNSMTCVVPHGARQPLFGTNPIAFGAPRAGGEPIVFDLATSAIAHGDVQIAAREGRLLPAGMGVDRDGLPTQEPRAILDGGALLPFGGHKGSALSMMVELLAAGLTGGNFSFEFDWSKHPGAQTPWTGQLLIVIDPDKGAGQHFAQRSEELVRQLHGVGQERLPGDRRYLERARSMAHGIVIAQADLERLQELAGH
notes: recombinant wild type; tags and purification only in the supplement
B1: the Km in “purified protein [2]” was determined as 14 ± 2 mM; in the series “purified protein [3]”, 19 ± 4 mM; in “purified protein [4]”, 7.5 ± 1.9 mM; in “purified protein [5]”, 33 ± 7 mM; in the series “purified protein [6]” it was 11 ± 1 mM. Moreover, the kcat turned out to be 0.23 ± 0.01 min⁻¹ in “purified protein [2]”; 1.1 ± 0.1 min⁻¹ in the series “purified protein [3]”; 0.0024 ± 0.0002 min⁻¹ in “purified protein [4]”; 1.7 ± 0.2 min⁻¹ in the series “purified protein [5]”; 3.00 ± 0.02 min⁻¹ in the series “purified protein [6]”. Further, the kcat/Km in “purified protein [2]” worked out at 0.267 M⁻¹ s⁻¹; in the series “purified protein [3]”, 0.967 M⁻¹ s⁻¹; in “purified protein [5]” it was 0.867 M⁻¹ s⁻¹; in “purified protein [6]” it was 4.67 M⁻¹ s⁻¹.

B2: KPREcoli (ketopantoate reductase from E. coli) (Escherichia coli K-12) (protein)
chain: MKITVLGCGALGQLWLTALCKQGHEVQGWLRVPQPYCSVNLVETDGSIFNESLTANDPDFLATSDLLLVTLKAWQVSDAVKSLASTLPVTTPILLIHNGMGTIEELQNIQQPLLMGTTTHAARRDGNVIIHVANGITHIGPARQQDGDYSYLADILQTVLPDVAWHNNIRAELWRKLAVNCVINPLTAIWNCPNGELRHHPQEIMQICEEVAAVIEREGHHTSAEDLRDYVMQVIDATAENISSMLQDIRALRHTEIDYINGFLLRRARAHGIAVPENTRLFEMVKRKESEYERIGTGLPRPW
notes: as for B1
As to B2, the Km in the series “purified protein [7]” is given as 9.5 ± 1.7 mM; in the series “purified protein [8]”, 9.5 ± 1.5 mM; in the series “purified protein [9]”, 0.4 ± 0.2 mM; in the series “purified protein [10]” it was 13 ± 2 mM; in the series “purified protein [11]”, 3.0 ± 0.5 mM; in the series “purified protein [12]”, 7 ± 1 mM. Further, the Km is 18 ± 3 mM in “purified protein [13]”; 12.9 ± 1.4 mM in “purified protein [14]”; 4.8 ± 0.4 mM in the series “purified protein [15]”; 1.5 ± 0.5 mM in “purified protein [16]”; 0.2 ± 0.1 mM in “purified protein [17]”; 4.9 ± 1.2 mM in “purified protein [18]”. Moreover, the kcat in the series “purified protein [7]” was found to be 89 ± 6 min⁻¹; in the series “purified protein [8]” it was 90 ± 5 min⁻¹; in “purified protein [9]” it was 4457 ± 813 min⁻¹; in “purified protein [10]”, 1021 ± 69 min⁻¹; in the series “purified protein [11]”, 926 ± 37 min⁻¹; in “purified protein [12]”, 700 ± 34 min⁻¹. Further, the kcat in the series “purified protein [13]” is 5.9 ± 0.5 min⁻¹; in the series “purified protein [14]”, 348 ± 15 min⁻¹; in the series “purified protein [15]” it was 5350 ± 138 min⁻¹; in “purified protein [16]” it was 6791 ± 1022 min⁻¹; in the series “purified protein [17]”, 1166 ± 67 min⁻¹; in the series “purified protein [18]”, 7.1 ± 0.5 min⁻¹. In addition, the kcat/Km was found to be 157 M⁻¹ s⁻¹ in the series “purified protein [7]”; 157 M⁻¹ s⁻¹ in the series “purified protein [8]”; 179000 ± 76500 M⁻¹ s⁻¹ in “purified protein [9]”; 1280 M⁻¹ s⁻¹ in the series “purified protein [10]”; 5230 M⁻¹ s⁻¹ in “purified protein [11]”; 1770 M⁻¹ s⁻¹ in “purified protein [12]”. For the same molecule, the kcat/Km worked out at 5.67 M⁻¹ s⁻¹ in “purified protein [13]”; 450 M⁻¹ s⁻¹ in the series “purified protein [14]”; 18500 M⁻¹ s⁻¹ in the series “purified protein [15]”; 73800 M⁻¹ s⁻¹ in “purified protein [16]”; 92800 M⁻¹ s⁻¹ in “purified protein [17]”; 25 M⁻¹ s⁻¹ in “purified protein [18]”.

As usually defined, the Km is the concentration of substrate that gives half-maximal velocity. The term kcat denotes the number of substrate molecules converted per active site and unit of time at saturation. The term kcat/Km denotes the turnover number divided by the Michaelis constant.
